Results published in patent US5985822A, “Inhibition of glial cell proliferation with N-CAM homophilic peptides” (The Scripps Research Institute, priority 1995, dated 1999).
“And” between values parts separate entries of the source, which are not always exact repeats. Equal entries are not always repeated.

Columns and labels:
[1] = test system: tyrosine phosphorylated proteins (60-70 kDa and approximately 120 kDa); test: Anti-phosphotyrosine immunoprecipitation and immunoblot of bFGF-stimulated astrocytes; type: cell-based, rat; settings: N-CAM 2 μg/ml 30 minutes, then bFGF 100 ng/ml 10 minutes
Experimental: Astrocyte cells were seeded at a density of 7×10^4 /cm^2 in a 100 mm tissue culture dish in Dulbecco's modified essential medium (DMEM) containing 10% fetal calf serum and gentamycin (5 μg/ml) at 37 degrees C with 7% CO2. After overnight culture, the medium was replaced with serum-free medium and the cells are cultured for an additional 48 hr. The serum-starved cells were treated for 30 minutes in the presence of N-CAM (2 μg/ml) or buffer alone and then stimulated for 10 minutes with bFGF (100 ng/ml) to stimulate tyrosine phosphorylation through the FGF receptor. […]
Immunoblotting was performed by incubation with the indicated antibodies followed by ^125 I-labeled protein A; the resulting autoradiogram was exposed for 14 hr on XAR film at -70° C. or scanned on a Molecular Dynamics PhosphorImager (Sunnyvale, Calif.). The amount of reactivity with antibodies to phosphotyrosine relative to the amount of reactivity with antibodies to each specific protein can be calculated from imaging these gel blots, in extracts from N-CAM treated cells vs. non treated cells. This determines whether the FGF receptor or other proteins analyzed in this same paradigm are changed in their levels of tyrosine phosphorylation upon N-CAM treatment.

[2] = test system: rat forebrain astrocytes in primary culture; test: Astrocyte proliferation assay ([3H]-thymidine incorporation normalized to [35S]-methionine); type: cell-based; settings: for inhibition of proliferation depending on cell density: 2 μg/ml N-CAM
Experimental: Primary cultures of astrocytes were prepared from the forebrains of 4-5 day old neonatal rats. After decapitation and removal of the forebrains from the skull, the meninges were carefully peeled off, and forebrain tissue was triturated in sterile phosphate buffered saline (PBS) using firepolished pipettes. The resulting suspension of tissue fragments was incubated in Hank's balanced salt solution (Gibco BRL) with 2.5 mg/ml trypsin, 1 mM EDTA and 0.1 mg/ml DNase (Boehringer) at 37° C. for 15 minutes. […] The pellet was resuspended in serum free medium (SFM) consisting of Dulbecco's Modified Eagle Medium (D-MEM), 2 mM L-glutamine, 50 U/ml penicillin G sodium and 50 μg/ml streptomycin sulfate (all from Gibco BRL) supplemented by 10% (vol/vol) fetal bovine serum (FBS). The cells were transferred to a standard 100 mm tissue culture dish (Falcon) and incubated at 37° C. for 1-2 hours. After mild shaking, the supernatant containing unattached cells was transferred to a 100 mm collagen-coated dish. […] Cell samples were checked regularly for the expression of GFAP, a marker for astrocytes.
After cell attachment, the culture medium was exchanged for SFM. In antisense experiments, oligonucleotides were added at the same time (T=0). […] After another 12 hours (at T=60), [^3 H]-thymidine (New England Nuclear, 20 Ci/mmol) was added (0.38 μM, 10 μCi/ml). Following an additional 12 hours (T=72), the wells were drained, counts precipitated by ice-cold […] trichloroacetic acid, and the plates left to dry. Counts were solubilized overnight by adding 100 μl 1 N KOH to each well, neutralized with 100 μl 1 N HCl, transferred to liquid scintillation vials and counted in 3 ml of Beckman Ready Safe liquid scintillation cocktail on a Packard 1600 TR counter. […] In this paper, proliferation is expressed as [^3 H]-thymidine incorporation normalized to [35]-methionine incorporation and calculated as [^3 H] dpm/ [35] dpm.

B1: N-CAM: neural cell adhesion molecule purified from early postnatal rat brains by affinity chromatography, mainly polysialylated embryonic form (protein, UniProt P13596 20-858, looked up)
Neural cell adhesion molecule …: LQVDIVPSQGEISVGESKFFLCQVAGDAKDKDISWFSPNGEKLSPNQQRISVVWNDDDSSTLTIYNANIDDAGIYKCVVTAEDGTQSEATVNVKIFQKLMFKNAPTPQEFKEGEDAVIVCDVVSSLPPTIIWKHKGRDVILKKDVRFIVLSNNYLQIRGIKKTDEGTYRCEGRILARGEINFKDIQVIVNVPPTVQARQSIVNATANLGQSVTLVCDADGFPEPTMSWTKDGEPIENEEEDDEKHIFSDDSSELTIRNVDKNDEAEYVCIAENKAGEQDASIHLKVFAKPKITYVENQTAMELEEQVTLTCEASGDPIPSITWRTSTRNISSEEKASWTRPEKQETLDGHMVVRSHARVSSLTLKSIQYTDAGEYICTASNTIGQDSQSMYLEVQYAPKLQGPVAVYTWEGNQVNITCEVFAYPSATISWFRDGQLLPSSNYSNIKIYNTPSASYLEVTPDSENDFGNYNCTAVNRIGQESLEFILVQADTPSSPSIDRVEPYSSTAQVQFDEPEATGGVPILKYKAEWKSLGEEAWHSKWYDAKEANMEGIVTIMGLKPETRYAVRLAALNGKGLGEISAATEFKTQPVREPSAPKLEGQMGEDGNSIKVNLIKQDDGGSPIRHYLVKYRALASEWKPEIRLPSGSDHVMLKSLDWNAEYEVYVVAENQQGKSKAAHFVFRTSAQPTAIPANGSPTAGLSTGAIVGILIVIFVLLLVVMDITCYFLNKCGLLMCIAVNLCGKAGPGAKGKDMEEGKAAFSKDESKEPIVEVRTEEERTPNHDGGKHTEPNETTPLTEPEKGPVETKSEPQESEAKPAPTEVKTVPNEATQTKENESKA
modifications: polysialylated embryonic form
[1]
  tyrosine phosphorylation of a 60-70 kDa protein and a protein at approximately 120 kDa: diminished tyrosine phosphorylation
[2]; higher cell density 28×10^4 cells/cm^2, confluent
  inhibition of proliferation depending on cell density: virtually ineffective
[2]; lower cell density 1.8×10^4 cells/cm^2
  inhibition of proliferation depending on cell density: Inhibition was maximal
[2]; N-CAM 2 μg/ml, parallel control of each drug experiment (Table 5)
  N-CAM Alone: 32.5 % of SFM Control and 34 % of SFM Control
[2]; N-CAM 10 μg/ml in SFM, 7×10^4 cells/cm^2, three preparations
  maximal suppression of proliferation: > 90%
[2]; added to astrocyte cultures in SFM
  effect on astrocyte proliferation (in words): inhibited their proliferation in a concentration dependent manner
[2]; with 1% FBS or 20 ng/ml bFGF
  suppressive effect of N-CAM added together with growth stimulus: suppressive effect similar in magnitude to that observed in SFM
